Assay results from the supplement of paper PMC7877785.
± gives the uncertainty stated by the source.

Test: self-splicing fitness, log relative to wild type (ln ratio); higher = more splicing; Tetrahymena group I intron in knt gene, E. coli kanamycin selection, DiMSum; sequences stand for … in CUCUCU…GGAGGGAAAAGUUAUCAGGCAUGCACCUGGUAGCUAGUCUUUAAACCAAUAGAUUGCAUCGGUUUAAAAGGCAAGACCGUCAAAUUGCGGGAAAGGGGUCAACAGCCGUUCAGUACCAAGUCUCAGGGGAAACUUUGAGAUGGCCUUGCAAAGGGUAUGGUAAUAAGCUGACGGACAUGGUCCUAACCACGCAGCCAAGUCCUAAGUCAACAGAUCUUCUGUUGAUAUGGAUGCAGUUCACAGACUAAAUGUCGGUCGGGGAAGAUGUAUUCUUCUCAUAAGAUAUAGUCGGACCUCUCCUUAAUGGGAGCUAGCGGAUGAAGUGAUGCAACACUGGAGCCGCUGGGAACUAAUUUGUAUGCGAAAGUAUAUUGAUUAGUUUUGGAGUACUCGUGGUCG
Procedure, shortened: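 Fitness was computed with DiMSum as the error-weighted combination of replicate fold changes, kanamycin versus none, each normalised to wild type. The library randomised all eight intron nucleotides of the P1ex region, with the intron placed in the knt kanamycin-resistance gene on pET-22b(+) in E. coli BL21(DE3). Six replicate transformations were grown overnight at 37°C or 30°C on LB agar with or without 25 μg/mL kanamycin, plus 100 μg/mL carbenicillin, 50 μM IPTG and 0.2% rhamnose. Pooled colonies were amplicon-sequenced on an Illumina HiSeq 2500.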

## ACGGAGCAAUAUUACGAUUU
30 °C
  self-splicing fitness (ln): -2.33 ± 0.12
37 °C
  self-splicing fitness (ln): -1.65 ± 0.15

## ACGGAGCAAUAUUACGCAGA
30 °C
  self-splicing fitness (ln): -2.52 ± 0.36
37 °C
  self-splicing fitness (ln): -2.02 ± 0.29

## ACGGAGCAAUAUUACGCCAU
30 °C
  self-splicing fitness (ln): -2.63 ± 0.25

## ACGGAGCAAUAUUACGCCUC
30 °C
  self-splicing fitness (ln): -2.43 ± 0.43
37 °C
  self-splicing fitness (ln): -1.82 ± 0.27

## ACGGAGCAAUAUUACGCCUG
30 °C
  self-splicing fitness (ln): -3.41 ± 0.2
37 °C
  self-splicing fitness (ln): -1.52 ± 0.19

## ACGGAGCAAUAUUACGCUCU
30 °C
  self-splicing fitness (ln): -3.26 ± 0.32
37 °C
  self-splicing fitness (ln): -1.22 ± 0.3

## ACGGAGCAAUAUUACGCUUG
30 °C
  self-splicing fitness (ln): -1.71 ± 0.11
37 °C
  self-splicing fitness (ln): -0.212 ± 0.1

## ACGGAGCAAUAUUACGGACC
37 °C
  self-splicing fitness (ln): -0.877 ± 0.34

## ACGGAGCAAUAUUACGGAGG
30 °C
  self-splicing fitness (ln): -4.47 ± 0.46
37 °C
  self-splicing fitness (ln): -1.69 ± 0.19

## ACGGAGCAAUAUUACGGCAU
37 °C
  self-splicing fitness (ln): -1.53 ± 0.23

## ACGGAGCAAUAUUACGGGGU
30 °C
  self-splicing fitness (ln): -3.65 ± 0.21
37 °C
  self-splicing fitness (ln): -1.45 ± 0.21

## ACGGAGCAAUAUUACGUACU
30 °C
  self-splicing fitness (ln): -1.69 ± 0.091
37 °C
  self-splicing fitness (ln): -2.32 ± 0.16

## ACGGAGCAAUAUUACGUAGC
37 °C
  self-splicing fitness (ln): -1.64 ± 0.21

## ACGGAGCAAUAUUACGUCAA
30 °C
  self-splicing fitness (ln): -2.71 ± 0.39
37 °C
  self-splicing fitness (ln): -2.94 ± 0.36

## ACGGAGCAAUAUUACGUCCA
30 °C
  self-splicing fitness (ln): -3.19 ± 0.17
37 °C
  self-splicing fitness (ln): -0.993 ± 0.15

## ACGGAGCAAUAUUACGUGAG
30 °C
  self-splicing fitness (ln): -3.06 ± 0.28
37 °C
  self-splicing fitness (ln): -1.15 ± 0.19

## ACGGAGCAAUAUUACGUUAC
37 °C
  self-splicing fitness (ln): -2.56 ± 0.22

## ACGGAGCAAUAUUACGUUGU
30 °C
  self-splicing fitness (ln): -3.46 ± 0.14
37 °C
  self-splicing fitness (ln): -2.07 ± 0.13

## ACGUAGCAAUAUUACGAAAG
30 °C
  self-splicing fitness (ln): -3.88 ± 0.25
37 °C
  self-splicing fitness (ln): -3.59 ± 0.31

## ACGUAGCAAUAUUACGACCC
30 °C
  self-splicing fitness (ln): -0.864 ± 0.19
37 °C
  self-splicing fitness (ln): 0.196 ± 0.22

## ACGUAGCAAUAUUACGACCU
30 °C
  self-splicing fitness (ln): -0.0641 ± 0.099
37 °C
  self-splicing fitness (ln): 0.527 ± 0.11

## ACGUAGCAAUAUUACGACGG
30 °C
  self-splicing fitness (ln): -0.92 ± 0.11
37 °C
  self-splicing fitness (ln): -0.526 ± 0.13

## ACGUAGCAAUAUUACGAUGU
30 °C
  self-splicing fitness (ln): -2.37 ± 0.14
37 °C
  self-splicing fitness (ln): -1.6 ± 0.17

## ACGUAGCAAUAUUACGCGAC
30 °C
  self-splicing fitness (ln): -3.16 ± 0.21
37 °C
  self-splicing fitness (ln): -1.9 ± 0.22

## ACGUAGCAAUAUUACGCGCC
30 °C
  self-splicing fitness (ln): -1.23 ± 0.19
37 °C
  self-splicing fitness (ln): -0.895 ± 0.25

## ACGUAGCAAUAUUACGCUCG
30 °C
  self-splicing fitness (ln): -2.16 ± 0.12
37 °C
  self-splicing fitness (ln): -0.0752 ± 0.15

## ACGUAGCAAUAUUACGGAGG
30 °C
  self-splicing fitness (ln): -4.05 ± 0.28
37 °C
  self-splicing fitness (ln): -2.53 ± 0.19

## ACGUAGCAAUAUUACGGCAC
37 °C
  self-splicing fitness (ln): -1.73 ± 0.42

## ACGUAGCAAUAUUACGGCGA
30 °C
  self-splicing fitness (ln): 0.0177 ± 0.1
37 °C
  self-splicing fitness (ln): 0.229 ± 0.12

## ACGUAGCAAUAUUACGGCGU
30 °C
  self-splicing fitness (ln): -3.88 ± 0.14
37 °C
  self-splicing fitness (ln): -2.48 ± 0.15

## ACGUAGCAAUAUUACGUAUA
30 °C
  self-splicing fitness (ln): -3.36 ± 0.33
37 °C
  self-splicing fitness (ln): -2.1 ± 0.2

## ACGUAGCAAUAUUACGUCUG
30 °C
  self-splicing fitness (ln): -2.47 ± 0.16
37 °C
  self-splicing fitness (ln): -2.71 ± 0.19

## ACGUAGCAAUAUUACGUGUG
30 °C
  self-splicing fitness (ln): -3.26 ± 0.14
37 °C
  self-splicing fitness (ln): -3.01 ± 0.16

## ACGUAGCAAUAUUACGUUCC
30 °C
  self-splicing fitness (ln): -3.29 ± 0.24
37 °C
  self-splicing fitness (ln): -2.04 ± 0.23

## ACUAAGCAAUAUUACGACCC
30 °C
  self-splicing fitness (ln): -1.08 ± 0.25
37 °C
  self-splicing fitness (ln): -0.275 ± 0.32

## ACUAAGCAAUAUUACGACCG
30 °C
  self-splicing fitness (ln): -0.45 ± 0.17
37 °C
  self-splicing fitness (ln): 0.0545 ± 0.21

## ACUAAGCAAUAUUACGACUA
30 °C
  self-splicing fitness (ln): -1.52 ± 0.14
37 °C
  self-splicing fitness (ln): -0.721 ± 0.14

## ACUAAGCAAUAUUACGAGAA
30 °C
  self-splicing fitness (ln): -2.46 ± 0.28
37 °C
  self-splicing fitness (ln): -2.37 ± 0.26

## ACUAAGCAAUAUUACGAGCA
30 °C
  self-splicing fitness (ln): -1.29 ± 0.086
37 °C
  self-splicing fitness (ln): -0.197 ± 0.098

## ACUAAGCAAUAUUACGAGGG
30 °C
  self-splicing fitness (ln): -2.55 ± 0.17
37 °C
  self-splicing fitness (ln): -2.31 ± 0.24

## ACUAAGCAAUAUUACGCCAA
30 °C
  self-splicing fitness (ln): -2.24 ± 0.12
37 °C
  self-splicing fitness (ln): -2.26 ± 0.16

## ACUAAGCAAUAUUACGCCGU
30 °C
  self-splicing fitness (ln): -1.86 ± 0.2
37 °C
  self-splicing fitness (ln): -1.64 ± 0.18

## ACUAAGCAAUAUUACGCUUC
30 °C
  self-splicing fitness (ln): -1.69 ± 0.17
37 °C
  self-splicing fitness (ln): -0.717 ± 0.14

## ACUAAGCAAUAUUACGGACG
30 °C
  self-splicing fitness (ln): -0.961 ± 0.087
37 °C
  self-splicing fitness (ln): -0.106 ± 0.14
